The series concerns the molecule itself. The series is described as follows: crystal structure.

Here are results for 1 protein from paper PMC3384303 (Nucleic Acids Research, 2012).

B1: SsbB (natural protein, Bacillus subtilis, UniProt C0SPB6 1-113, looked up)
chain: MFNQVMLVGRLTKDPDLRYTSAGAAVAHVTLAVNRSFKNASGEIEADYVNCTLWRKTAENTALYCQKGSLVGVSGRIQTRSYENEEGVNVYVTEVLADTVRFMDPKPREKAAD
For the protein B1, the stoichiometry N (commonly the number of molecules, sites or subunits per partner or assembly) amounted to 4.
